The text below walks through data of publication doi:10.1101/2020.11.25.397760 (bioRxiv, 2020).

The data set deals with the molecule itself. In words: electron microscopy.

B1: FliP (natural protein, Salmonella enterica serovar Typhimurium)
chain: QLPGLISQPLAGGGQSWSLSVQTLVFITSLTFLPAILLMMTSFTRIIIVFGLLRNALGTPSAPPNQVLLGLALFLTFFIMSPVIDKIYVDAYQPFSEQKISMQEALDKGAQPLRAFMLRQTREADLALFARLANSGPLQGPEAVPMRILLPAYVTSELKTAFQIGFTIFIPFLIIDLVIASVLMALGMMMVPPATIALPFKLMLFVLVDGWQLLMGSLAQSFYS
Turning to B1, the binding result is listed as “binds”.
